Assay results from patent US20260055186A1 (REPERTOIRE IMMUNE MEDICINES, published 2026).
Where two headings read alike, the source gives them in different places.

B1: humanized 03A01-VH2-VK2 (antibody, human IgG1, V domains shown)
VH: EVQFQESGPGLVKPSQTLSLTCTVSGYSITSDFAWNWIRQPPGKGLEWMGYISYSGDTNYNPSLRSRITISRDTSKNQFSLKLSSVTAADTAVYYCTIRGYYTDSAFVFWGQGTLVTVSS
VL: DIQMTQSPSTLSVSVGDRVTITCKASDHINNWLAWYQQKPGKAPKLLISGATSLETGVPSRFSGSGSGLEYTLTISSLQPDDFATYYCQQYWNSPFTFGQGTKLEIK
notes: human IgG1 format; also called 03-VH2/VK2
B2: humanized 03A01-VH2-VK3 (antibody, human IgG1, V domains shown)
VH: EVQFQESGPGLVKPSQTLSLTCTVSGYSITSDFAWNWIRQPPGKGLEWMGYISYSGDTNYNPSLRSRITISRDTSKNQFSLKLSSVTAADTAVYYCTIRGYYTDSAFVFWGQGTLVTVSS
VL: DIQMTQSPSTLSASVGDRVTITCKASDHINNWLAWYQQKPGKAPKLLISGATSLETGVPSRFSGSGSGLEYTLTISSLQPDDFATYYCQQYWNSPFTFGQGTKLEIK
notes: human IgG1 format; also called 03-VH2/VK3
B3: humanized 03A01-VH3-VK3 (antibody, human IgG1, V domains shown)
VH: EVQFQESGPGLVKPSQTLSLTCTVSGYSITSDFAWNWIRQPPGKGLEWMGYISYSGDTNYNPSLKSRVTISRDTSKNQFSLKLSSVTAADTAVYYCTIRGYYTDSAFVFWGQGTLVTVSS
VL: DIQMTQSPSTLSASVGDRVTITCKASDHINNWLAWYQQKPGKAPKLLISGATSLETGVPSRFSGSGSGLEYTLTISSLQPDDFATYYCQQYWNSPFTFGQGTKLEIK
notes: human IgG1 format; also called 03-VH3/VK3
B4: humanized 03A01-VH1-VK3 (antibody, human IgG1, V domains shown)
VH: EVQFQESGPGLVKPSQTLSLTCTVTGYSITSDFAWNWIRQPPGKELEWMGYISYSGDTNYNPSLRSRITISRDTSKNQFSLKLSSVTAADTATYYCTIRGYYTDSAFVFWGQGTLVTVSS
VL: DIQMTQSPSTLSASVGDRVTITCKASDHINNWLAWYQQKPGKAPKLLISGATSLETGVPSRFSGSGSGLEYTLTISSLQPDDFATYYCQQYWNSPFTFGQGTKLEIK
notes: human IgG1 format; also called 03-VH1/VK3
B5: humanized 03A01-VH3-VK1 (antibody, human IgG1, V domains shown)
VH: EVQFQESGPGLVKPSQTLSLTCTVSGYSITSDFAWNWIRQPPGKGLEWMGYISYSGDTNYNPSLKSRVTISRDTSKNQFSLKLSSVTAADTAVYYCTIRGYYTDSAFVFWGQGTLVTVSS
VL: DIQMTQSSSTLSVSLGDRVTITCKASDHINNWLAWYQQKPGKAPRLLISGATSLETGVPSRFSGSGSGLEYTLTISSLQPDDFATYYCQQYWNSPFTFGQGTKLEIK
notes: human IgG1 format; also called 03-VH3/VK1
B6: humanized 02A01-VH4-VK2 (antibody, human IgG1, V domains shown)
VH: EVQLVQSGAEVKKPGATVKISCKASGYTFTDFTMHWVQQAPGKGLEWIGLVNPNNGGNIYAEKFQGRATLTVDTSTSTAYMELSSLRSEDTAVYYCGRVPLYTSHGMDYWGQGTLVTVSS
VL: EIVLTQSPATLSVSPGERATISCRASESVDSYDINSMHWYQQKPGQAPRLLIYRASHLQSGIPARFSGSGSRTDFTLTISSVEPEDFATYYCQQSNEDPLTFGQGTKLEIK
notes: human IgG1 format; also called 02-VH4/VK2
B7: humanized 02A01-VH6-VK2 (antibody, human IgG1, V domains shown)
VH: EVQLVQSGAEVKKPGATVKISCKASGYTFTDFTMHWVQQAPGKGLEWIGLVNPNNGGNIYAEKFQGRVTLTVDTSTSTAYMELSSLRSEDTAVYYCGRVPLYTSHGMDYWGQGTLVTVSS
VL: EIVLTQSPATLSVSPGERATISCRASESVDSYDINSMHWYQQKPGQAPRLLIYRASHLQSGIPARFSGSGSRTDFTLTISSVEPEDFATYYCQQSNEDPLTFGQGTKLEIK
notes: human IgG1 format; also called 02-VH6/VK2
B8: humanized 02A01-VH3-VK3 (antibody, human IgG1, V domains shown)
VH: EVQLVQSGAEVKKPGATLKISCKASGYTFTDFTMHWVQQAPGKGLEWIGLVNPNNGGNIYAEKFQGRATLTVDTSTSTAYMELSSLRSEDTSVYYCGRVPLYTSHGMDYWGQGTLVTVSS
VL: EIVLTQSPATLSLSPGERATISCRASESVDSYDINSMHWYQQKPGQAPRLLIYRASHLQSGIPARFSGSGSRTDFTLTISSLEPEDFATYYCQQSNEDPLTFGQGTKLEIK
notes: human IgG1 format; also called 02-VH3/VK3
B9: humanized 02A01-VH6-VK1 (antibody, human IgG1, V domains shown)
VH: EVQLVQSGAEVKKPGATVKISCKASGYTFTDFTMHWVQQAPGKGLEWIGLVNPNNGGNIYAEKFQGRVTLTVDTSTSTAYMELSSLRSEDTAVYYCGRVPLYTSHGMDYWGQGTLVTVSS
VL: EIVLTQSPATLSVSPGERATISCRASESVDSYDINSMHWYQQKPGQPPRLLIYRASHLQSGIPARFSGSGSRTDFTLTISSVEPEDFATYYCQQSNEDPLTFGQGTKLEIK
notes: human IgG1 format; also called 02-VH6/VK1
B10: humanized 02A01-VH6-VK3 (antibody, human IgG1, V domains shown)
VH: EVQLVQSGAEVKKPGATVKISCKASGYTFTDFTMHWVQQAPGKGLEWIGLVNPNNGGNIYAEKFQGRVTLTVDTSTSTAYMELSSLRSEDTAVYYCGRVPLYTSHGMDYWGQGTLVTVSS
VL: EIVLTQSPATLSLSPGERATISCRASESVDSYDINSMHWYQQKPGQAPRLLIYRASHLQSGIPARFSGSGSRTDFTLTISSLEPEDFATYYCQQSNEDPLTFGQGTKLEIK
notes: human IgG1 format; also called 02-VH6/VK3
B11: humanized 02A01-VH4-VK3 (antibody, human IgG1, V domains shown)
VH: EVQLVQSGAEVKKPGATVKISCKASGYTFTDFTMHWVQQAPGKGLEWIGLVNPNNGGNIYAEKFQGRATLTVDTSTSTAYMELSSLRSEDTAVYYCGRVPLYTSHGMDYWGQGTLVTVSS
VL: EIVLTQSPATLSLSPGERATISCRASESVDSYDINSMHWYQQKPGQAPRLLIYRASHLQSGIPARFSGSGSRTDFTLTISSLEPEDFATYYCQQSNEDPLTFGQGTKLEIK
notes: human IgG1 format; also called 02-VH4/VK3

Columns and labels:
[1] = target: T1, human CD8 on human T cells (human, UniProt P01732 22-235); assay: flow cytometry on human CD8+ T cells, titration
T1 construct: whole, on cells; the antibodies were raised against human CD8 alpha; also called CD8 on human CD8+ T cells; hCD8
Procedure: (§1) The 16 above-referenced humanized 03A01-derived anti-CD8 antibodies were screened for their ability to bind human CD8 by evaluating binding to CD8⁺ T cells. The non-humanized parent (“03-Parent”) and the non-humanized parent comprising a heavy chain D64E liability mutation (“03-Parent-VH-D64E”) were used as controls. […] Cells were washed with 1×phosphate buffered saline (PBS) containing 1 mg/mL bovine serum albumin (PBS/BSA) and then stained with a 1:100 dilution of DyLight650-conjugated anti-human IgG H+L polyclonal antibody (ThermoFisher cat. no. Sa5-10129) in PBS/BSA. Following a 20-30 min incubation at 4° C., the cells were washed once with PBS/BSA, and then resuspended in PBS/BSA for analysis on a FACSCelesta using Diva software (BD Biosciences). The resulting data were analyzed using FlowJo. Data were quantified and reported as Max fluorescence intensity (MFI) of human IgG-Fc. […] Complete replacement of the LCDR1 (antibodies comprising VK4) eliminated binding to the CD8⁺ T cells.
(§2) The binding affinities of five of the above-referenced humanized anti-CD8 antibodies to human CD8 were determined by evaluating binding to CD8 human T cells using the method described above. Binding to human CD8+ T cells was tested at 7 serial 5-fold dilutions of each humanized 03A01 variant (from 50 nM to 3.2 pM). The resulting data were analyzed using FlowJo.

[2] = target: T1, human CD8 on human T cells; assay: flow cytometry on human CD8+ T cells, titration, apparent KD
Procedure: as §1, §2

human CD8α/β [3] = target: T2, human CD8α/β (human, UniProt P01732 22-182; P10966 22-170); assay: SPR, antibody captured on Protein A chip, hCD8α/β as analyte, 1:1 fit
T2 construct: Soluble heterodimer used in SPR and in the Carterra binning (there printed only as CD8α/β); also called hCD8α/β
Procedure: (§3) The binding affinities of six of the humanized anti-CD8 antibodies to human CD8 were also determined by surface plasmon resonance (SPR). Briefly, equilibrium dissociation constants for human CD8α/β were determined using a real-time SPR biosensor using a Protein A Sensor Chip (Cytiva) to capture purified anti-CD8 monoclonal antibodies at a concentration of 0.5 nM. SPR binding studies were performed in a buffer composed of Phosphate buffered saline, pH 7.2 containing 0.05% v/v Surfactant P20 (PBS-P20 buffer). Different concentrations of hCD8α/β prepared in PBS-P20 running buffer (ranging from 500 nM to 7.8 nM, 2-fold dilutions) were injected over the anti-CD8 monoclonal antibody captured surface. Association of hCD8α/β to the captured monoclonal antibody was monitored for 400 seconds and the dissociation of hCD8α/β in PBS-P20 running buffer was monitored for 600 sec. All of the binding kinetics experiments were performed at 25° C. Kinetic association (kₐ) and dissociation (kd) rate constants were determined by fitting the real-time sensorgrams to a 1:1 binding model using Scrubber 2.0c curve fitting software.

human CD8α/β [4] = target: T2, human CD8α/β; assay: SPR, antibody captured on Protein A chip, hCD8α/β as analyte
Procedure: as §3

[5] = target: T1, human CD8 on human T cells; assay: flow cytometry on human CD8+ T cells, titration; remark: listed apart in the source
Procedure: (§4) The 24 humanized 02A01-derived anti-CD8 antibodies (excluding 02A01-VK3(D30E/N35Q)) were screened for their ability to bind human CD8 by evaluating binding to CD8+ T cells. The non-humanized parent (“02-Parent”) and the non-humanized parent comprising a heavy chain M39L liability mutation (“02-Parent-VH-M39L”) were used as controls. […] Cells were washed with 1×phosphate buffered saline (PBS) containing 1 mg/mL bovine serum albumin (PBS/BSA) and then stained with a 1:100 dilution of DyLight650-conjugated anti-human IgG H+L polyclonal antibody (ThermoFisher cat. no. Sa5-10129) in PBS/BSA. Following a 20-30 min incubation at 4° C., the cells were washed once with PBS/BSA, and then resuspended in PBS/BSA for analysis on a FACSCelesta using Diva software (BD Biosciences). The resulting data were analyzed using FlowJo. Data were quantified and reported as Max fluorescence intensity (MFI) of human IgG-Fc. […] Complete replacement of the HCDR1 (antibodies comprising VH5) eliminated binding to the CD8+ T cells.
(§5) Binding to human CD8+ T cells was tested at 7 serial 5-fold dilutions of each tested humanized 02A01 variant (from 50 nM to 3.2 pM). The resulting data were analyzed using FlowJo.

[6] = target: T1, human CD8 on human T cells; assay: flow cytometry on human CD8+ T cells, titration, apparent KD; remark: listed apart in the source
Procedure: as §4, §5

T1 sequence (P01732 22-235): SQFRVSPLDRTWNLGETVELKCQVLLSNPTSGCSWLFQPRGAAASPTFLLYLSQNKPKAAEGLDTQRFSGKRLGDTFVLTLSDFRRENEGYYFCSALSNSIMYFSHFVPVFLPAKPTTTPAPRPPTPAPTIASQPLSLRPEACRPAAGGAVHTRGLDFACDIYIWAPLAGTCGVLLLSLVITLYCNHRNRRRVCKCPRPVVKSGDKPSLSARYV
T2 sequence (P01732 22-182, chain 1 of 2): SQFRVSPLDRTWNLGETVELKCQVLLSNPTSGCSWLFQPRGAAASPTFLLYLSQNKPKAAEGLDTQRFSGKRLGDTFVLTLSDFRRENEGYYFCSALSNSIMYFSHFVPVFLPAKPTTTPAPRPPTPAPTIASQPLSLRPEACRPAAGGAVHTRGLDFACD
T2 sequence (P10966 22-170, chain 2 of 2): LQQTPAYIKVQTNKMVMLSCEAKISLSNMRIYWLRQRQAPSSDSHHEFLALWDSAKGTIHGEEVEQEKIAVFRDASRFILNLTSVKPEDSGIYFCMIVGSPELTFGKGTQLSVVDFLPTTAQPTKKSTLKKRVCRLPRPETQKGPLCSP

| Binder | Fold Change to Parental Apparent KD [1] [fold] | Kd [2] [nM] | Kd (human CD8α/β [3]) [nM] | Fold Change to Parental Calculated KD (human CD8α/β [4]) [fold] | Fold Change to Parental Apparent KD [5] [fold] | Maximum CD8+ T cell Binding (MFI) [5] [MFI] | Kd [6] [nM] |
| --- | --- | --- | --- | --- | --- | --- | --- |
| B1 | 2 | 1.84 |  |  |  |  |  |
| B2 | 2.1 | 1.91 |  |  |  |  |  |
| B3 | 2.1 | 1.98 |  |  |  |  |  |
| B4 | 1.7 | 1.6 |  |  |  |  |  |
| B5 | 1.8 | 1.65 |  |  |  |  |  |
| B6 |  |  | 19.5 | 2.1 | 1.14 | 2680 | 0.065 |
| B7 |  |  | 16.6 | 1.79 | 1.68 | 2770 | 0.096 |
| B8 |  |  | 22 | 2.37 | 1.58 | 2540 | 0.09 |
| B9 |  |  | 15.9 | 1.71 | 1.02 | 2620 | 0.058 |
| B10 |  |  | 19.6 | 2.12 | 1.51 | 2540 | 0.089 |
| B11 |  |  | 19.8 | 2.13 | 1.56 | 2620 | 0.089 |
